Measurements reported in patent US20260055210A1 (MONTEFIORE MEDICAL CENTER, published 2026).

Biological target: T1, Human IgG1 Fc (human, UniProt P01857-1 100-330 = IgG part, limits assumed)
T1 construct: domain: Fc; Negative control; also called human IgG1 Fc domain
Assay: flow cytometry, percent of bound cells, cMPL-expressing HEK293 cells
Source text: To study the binding capabilities of the fusion polypeptide provided herein to thrombopoietin receptors, the fusion polypeptides were contacted with cells expressing thrombopoietin receptor cMPL. Mouse or human thrombopoietin receptor cMPL was expressed on the surface of Freestyle™ HEK293 cell line. Mouse or human thrombopoietin receptor cMPL were expressed as a fusion polypeptide with either GPF or mCherry. Expression of cMPL receptors was confirmed by measuring fluorescent signal. As a general control, PD1 protein binding to PDL1-expressing cells was used. Human IgG1 Fc and secondary antibody were used as a negative control since they would not be expected to bind to cMPL. […] The cMPL expressing cells were treated with Nplate (Romiplostim) as the positive control. FLT3L-romiplostim fusion polypeptide with a His-Tag, FLT3L-romiplostim fusion polypeptide without a His-Tag were tested. Binding was analyzed using a fluorescent secondary antibody against IgG1 domain of the polypeptide. The percentages of cells bound to the tested polypeptide were quantified.

| Binder | binding result |
| --- | --- |
| human thrombopoietin receptor cMPL expressed on the surface of Freestyle HEK293 cells (receptor, UniProt P40238 26-635, looked up, whole, on cells; also called human cMPL; human cMLP; not shown: Fused with either GFP (printed 'GPF') or mCherry) QDVSLLASDSEPLKCFSRTFEDLTCFWDEEEAAPSGTYQLLYAYPREKPRACPLSSQSMPHFGTRYVCQFPDQEEVRLFFPLHLWVKNVFLNQTRTQRVLFVDSVGLPAPPSIIKAMGGSQPGELQISWEEPAPEISDFLRYELRYGPRDPKNSTGPTVIQLIATETCCPALQRPHSASALDQSPCAQPTMPWQDGPKQTSPSREASALTAEGGSCLISGLQPGNSYWLQLRSEPDGISLGGSWGSWSLPVTVDLPGDAVALGLQCFTLDLKNVTCQWQQQDHASSQGFFYHSRARCCPRDRYPIWENCEEEEKTNPGLQTPQFSRCHFKSRNDSIIHILVEVTTAPGTVHSYLGSPFWIHQAVRLPTPNLHWREISSGHLELEWQHPSSWAAQETCYQLRYTGEGHQDWKVLEPPLGARGGTLELRPRSRYRLQLRARLNGPTYQGPWSSWSDPTRVETATETAWISLVTALHLVLGLSAVLGLLLLRWQFPAHYRRLRHALWPSLPDLHRVLGQYLRDTAALSPPKATVSDTCEEVEPSLLEILPKSSERTPLPLCSSQAQMDYRRLQPSCLGTMPLSVCPPMAESGSCCTTHIANHSYLPLSYWQQP | no binding |
| mouse thrombopoietin receptor cMPL expressed on the surface of Freestyle HEK293 cells (receptor, UniProt Q08351 26-625, looked up, whole, on cells; also called mouse cMPL; mouse cMLP; not shown: Fused with either GFP (printed 'GPF') or mCherry) QDVFLLALGTEPLNCFSQTFEDLTCFWDEEEAAPSGTYQLLYAYRGEKPRACPLYSQSVPTFGTRYVCQFPAQDEVRLFFPLHLWVKNVSLNQTLIQRVLFVDSVGLPAPPRVIKARGGSQPGELQIHWEAPAPEISDFLRHELRYGPTDSSNATAPSVIQLLSTETCCPTLWMPNPVPVLDQPPCVHPTASQPHGPAPFLTVKGGSCLVSGLQAGKSYWLQLRSQPDGVSLRGSWGPWSFPVTVDLPGDAVTIGLQCFTLDLKMVTCQWQQQDRTSSQGFFRHSRTRCCPTDRDPTWEKCEEEEPRPGSQPALVSRCHFKSRNDSVIHILVEVTTAQGAVHSYLGSPFWIHQAVLLPTPSLHWREVSSGRLELEWQHQSSWAAQETCYQLRYTGEGREDWKVLEPSLGARGGTLELRPRARYSLQLRARLNGPTYQGPWSAWSPPARVSTGSETAWITLVTALLLVLSLSALLGLLLLKWQFPAHYRRLRHALWPSLPDLHRVLGQYLRDTAALSPSKATVTDSCEEVEPSLLEILPKSSESTPLPLCPSQPQMDYRGLQPCLRTMPLSVCPPMAETGSCCTTHIANHSYLPLSYWQQP | no binding |
